Patent US20150072922A1, “RNASE 7 ANTIMICROBIAL PEPTIDES” (THE RESEARCH INSTITUTE AT NATIONWIDE CHILDREN'S HOSPITAL, priority 2012, published 2015)
Entries after “also recorded” stand apart in the source; their conditions may differ. Marks after values point to notes of the source that are not given here. Primed or numbered codes have the meaning given here. No end group written: not given here. *: point of attachment. His tag″ = six-residue histidine tag (His-tag) at the NH2-terminus, N[C@@H](Cc1c[nH]cn1)C(=O)N[C@@H](Cc1c[nH]cn1)C(=O)N[C@@H](Cc1c[nH]cn1)C(=O)N[C@@H](Cc1c[nH]cn1)C(=O)N[C@@H](Cc1c[nH]cn1)C(=O)N[C@@H](Cc1c[nH]cn1)C(=O)*; His tag = six-residue histidine tag at the N-terminus, N[C@@H](Cc1c[nH]cn1)C(=O)N[C@@H](Cc1c[nH]cn1)C(=O)N[C@@H](Cc1c[nH]cn1)C(=O)N[C@@H](Cc1c[nH]cn1)C(=O)N[C@@H](Cc1c[nH]cn1)C(=O)N[C@@H](Cc1c[nH]cn1)C(=O)*

B1: F:1-83: recombinant N-terminal RNase 7 fragment, amino acids 1 to 83 (SEQ ID NO: 4), N-terminal His tag (protein, listed as Homo sapiens)
chain: KPKGMTSSQWFKIQHMQPSPQACNSAMKNINKHTKRCKDLNTFLHEPFSSVAATCQTPKIACKNGDKNCHQSHGPVSLTMCKL
modifications: N-terminal His tag
B2: F:46-128: recombinant C-terminal RNase 7 fragment, amino acids 46 to 128, N-terminal His tag (protein)
chain: EPFSSVAATCQTPKIACKNGDKNCHQSHGPVSLTMCKLTSGKYPNCRYKEKRQNKSYVVACKPPQKKDSQQFHLVPVHLDRVL
modifications: left off: small tags and cut ends
notes: recombinant C-terminal RNase 7 fragment, amino acids 46 to 128, N-terminal His tag
B3: F:30-128: recombinant C-terminal RNase 7 fragment, amino acids 30 to 128, N-terminal His tag (protein)
chain: INKHTKRCKDLNTFLHEPFSSVAATCQTPKIACKNGDKNCHQSHGPVSLTMCKLTSGKYPNCRYKEKRQNKSYVVACKPPQKKDSQQFHLVPVHLDRVL
modifications: left off: small tags and cut ends
notes: recombinant C-terminal RNase 7 fragment, amino acids 30 to 128, N-terminal His tag
B4: F:56-128: recombinant C-terminal RNase 7 fragment, amino acids 56 to 128, N-terminal His tag (protein)
chain: QTPKIACKNGDKNCHQSHGPVSLTMCKLTSGKYPNCRYKEKRQNKSYVVACKPPQKKDSQQFHLVPVHLDRVL
modifications: left off: small tags and cut ends
notes: recombinant C-terminal RNase 7 fragment, amino acids 56 to 128, N-terminal His tag
B5: F:1-107: recombinant N-terminal RNase 7 fragment, amino acids 1 to 107 (SEQ ID NO: 6), N-terminal His tag (protein, listed as Homo sapiens)
chain: KPKGMTSSQWFKIQHMQPSPQACNSAMKNINKHTKRCKDLNTFLHEPFSSVAATCQTPKIACKNGDKNCHQSHGPVSLTMCKLTSGKYPNCRYKEKRQNKSYVVACK
modifications: N-terminal His tag

How the values were obtained:
[1] = test system: Proteus mirabilis (ATCC 7002); experiment: Antimicrobial kill (microdilution) assay, MIC/MBC by CFU count; format: cell-based; conditions: for antimicrobial activity against P. mirabilis (in words): MIC/MBC based, mostly compared to full-length RNase 7; for P. mirabilis MIC: lowest concentration that inhibits the growth of 90% of the inoculation; for P. mirabilis MIC / P. mirabilis MBC: 3 hours, 0.1×PBS; for P. mirabilis MBC: minimum bactericidal concentration
Method: Uropathogenic Escherichia coli (UTI89) was grown in Luria broth (LB) medium and plated on LB-agar. Uropathogenic Staphylococcus saprophyticus (ATCC 15305) was grown in LB and plated on Trypticase Soy Agar with 5% sheep blood (Fisher Scientific, Pittsburgh, Pa., USA). Uropathogenic Proteus mirabilis (ATCC 7002) was grown in LB and plated on MacConkey II Agar (Fisher Scientific, Pittsburgh, Pa., USA). These organisms were chosen as the primary organisms that account for a majority of Gram-negative and Gram-positive urinary tract infections (UTI). Anti-RNase 7 antibody was generated in rabbit with recombinant human RNase 7 (Biomatik, Wilmington, Del., USA)
(§1) Antimicrobial activities of the recombinant peptides were estimated with a microdilution assay. Briefly, the test bacteria (10^4 CFUs) were incubated with various concentrations of RNase 7 and each fragment in 50 ul 0.1×PBS buffer for 3 hours at 37° C. After incubation on Agar plates overnight at 37° C., the number of colony-forming units (CFUs) at each peptide concentration was determined. Using untreated bacterial aliquots as baseline, the minimum inhibition concentration (MIC) was defined as the lowest concentration that inhibits the growth of 90% of the inoculation, and the minimum bactericidal concentration (MBC) was defined as the lowest concentration at which less than 99.99% of the initial inoculum is viable.

[2] = test system: Staphylococcus saprophyticus (ATCC 15305); experiment: as above; format: cell-based; conditions: for S. saprophyticus MIC: lowest concentration that inhibits the growth of 90% of the inoculation; for S. saprophyticus MIC / S. saprophyticus MBC: 3 hours, 0.1×PBS; for S. saprophyticus MBC: minimum bactericidal concentration; for antimicrobial activity against S. saprophyticus (in words): MIC/MBC based, mostly compared to full-length RNase 7
Method: (§2) The antimicrobial activity of RNase 7 and its fragments was estimated using a microdilution assay. Briefly, test bacteria (10^5) were incubated with several concentrations of RNase 7 and each fragment in 50 μl 0.1×PBS buffer for 3 hours in a 37° C. incubator. Each reaction was plated on the appropriate medium and grew overnight at 37° C. The antimicrobial activity was determined by the number of colony-forming units (CFUs) the following day. The minimum inhibition concentration (MIC) is defined as the lowest concentration that inhibits the growth of 90% of the inoculation and the minimum bactericidal concentration (MB C) is defined as the lowest concentration at which less than 99.99% of the initial inoculum is viable.
as §1

Escherichia coli (UTI89) = experiment: as above; format: cell-based; conditions: for E. coli MIC: lowest concentration that inhibits the growth of 90% of the inoculation; for E. coli MIC / E. coli MBC: 3 hours, 0.1×PBS; for E. coli MBC: minimum bactericidal concentration; for antimicrobial activity against E. coli (in words): MIC/MBC based, mostly compared to full-length RNase 7
Method: as §2, §1

E. coli = experiment: Urinary condition functional assay (OD600 growth curves); format: cell-based, Escherichia coli; conditions: 2 μM peptide, 50, 150, 500 mM NaCl, OD600 for 10 hours, FIG. 4
Method: (§3) Because the urinary environment can have significant variation in salt concentration, ionic composition, and pH, an antimicrobial/bacteriostatic assay was performed to evaluate if pH, calcium, or ionic strength affects the activity of full-length RNase7 or its fragments. The highest activity fragment F:1-97 and lowest activity fragment F:72-128 for these experiments were chosen. Bacteria were inoculated in 1% peptone water and growth to log phase with OD600=0.5. Bacteria were diluted to 1:10 and 1 μl added to 100 μl of 1% peptone water with various pH, CaCl2 or NaCl concentrations that correspond to a physiologic range present in the urine in a 96-well flat bottom plate (Thermo Scientific, Nunc, Worcester, Mass.). To each well, 2 μM of RNase7 or its fragments were added.
(§4) Bacterial growth was monitored using an Absorbance microplate reader (BioTek Instruments, Winooski, Vt.) at a final volume of 110 μl. The turbidity of the culture was measured and recorded at t=0 and every 20 min thereafter for 10 hours using the absorbance at 600 nm (OD600). The values of OD600 values were plotted against times to generate growth curves.

S. saprophyticus = experiment: as above; format: cell-based, Staphylococcus saprophyticus
Method: as §3, §4

Proteus mirabilis = experiment: as above; format: cell-based
Method: as §3, §4

Molecule	antimicrobial activity against P. mirabilis (in words) [1]	P. mirabilis MIC [1]	P. mirabilis MBC [1]	S. saprophyticus MIC [2]	S. saprophyticus MBC [2]	E. coli MIC (Escherichia coli (UTI89))	E. coli MBC (Escherichia coli (UTI89))	activity on E. coli growth at various NaCl titers (E. coli)	activity on S. saprophyticus growth at various NaCl titers (S. saprophyticus; 2 μM peptide, 50, 150, 500 mM NaCl, OD600 for 10 hours, FIG. 7)	activity on S. saprophyticus growth at various pH levels (S. saprophyticus; 2 μM peptide, pH 5, 7, 9, OD600 for 10 hours, FIG. 6)	activity on Proteus mirabilis growth at various NaCl titers (Proteus mirabilis; 2 μM peptide, 50, 150, 500 mM NaCl, OD600 for 10 hours, FIG. 10)	activity on Proteus mirabilis growth at various pH levels (Proteus mirabilis; 2 μM peptide, pH 5, 7, 9, OD600 for 10 hours, FIG. 9)	antimicrobial activity against E. coli (in words) (Escherichia coli (UTI89))	antimicrobial activity against S. saprophyticus (in words) [2]
F:1-45: recombinant N-terminal RNase 7 fragment, amino acids 1 to 45 (SEQ ID NO: 2), N-terminal His tag ({His tag″}-KPKGMTSSQWFKIQHMQPSPQACNSAMKNINKHTKRCKDLNTFLH; ends and bridges not checked; listed as Homo sapiens)	no activity at high concentrations	>7** uM	>7** uM	0.13 µM	0.5 µM	0.49 µM	0.98 µM	–	–	–	–	–	–	–
F:72-128: recombinant C-terminal RNase 7 fragment, amino acids 72 to 128, N-terminal His tag ({His tag}-SHGPVSLTMCKLTSGKYPNCRYKEKRQNKSYVVACKPPQKKDSQQFHLVPVHLDRVL; ends and bridges not checked)	–	>3.5** uM	>3.5** uM	3.5** uM	>7** uM	3.5** uM	7* uM	inhibitory effect of 500 mM NaCl against E. coli was diminished with the addition of F:72-128	minimal activity against S. saprophyticus at all NaCl concentrations	minimal activity with enhanced growth at pH 7 and 9; also recorded: grew better with the addition of F:72-128 at pH 7 and 9	minimal activity against P. mirabilis at all NaCl concentrations	minimal activity with enhanced growth at pH 7 and 9	least activity	–
F:84-128: recombinant C-terminal RNase 7 fragment, amino acids 84 to 128, N-terminal His tag ({His tag}-TSGKYPNCRYKEKRQNKSYVVACKPPQKKDSQQFHLVPVHLDRVL; cysteine pairing not given here)	poor antimicrobial function against all uropathogens	>3.5** uM	>3.5** uM	1.75 µM	3.5* uM	1.92** uM	>3.5** uM	–	–	–	–	–	poor antimicrobial function against all uropathogens	poor antimicrobial function against all uropathogens
B1	–	.44 µM	.88 µM	0.34 µM	0.69 µM	0.43 µM	0.87 µM	–	–	–	–	–	–	–
B2	–	3.5 µM	>3.5** uM	0.22 µM	1.75* uM	0.34 µM	.68 µM	–	–	–	–	–	–	MICs similar to full-length
B3	–	>3.5** uM	>3.5** uM	0.88* uM	.88 µM	0.52 µM	2.07 µM	–	–	–	–	–	–	–
B4	–	>7** uM	>7** uM	0.22 µM	1.75* uM	0.83 µM	1.65 µM	–	–	–	–	–	–	MICs similar to full-length
B5	–	.44 µM	.44 µM	0.49 µM	>1.96* uM	0.57 µM	0.57 µM	–	–	–	–	–	–	–
